13 sequences from the supplement of paper PMC9170038 can be followed below.

The test system of the data set is MS2 coat protein. The data set can be described thus: apparent KD of MS2 coat protein; designed switch direction (-1 OFF switch, 1 ON switch): -1; higher = weaker reporter binding. The procedure, abridged: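 SNAP-549-labelled MS2 coat protein was titrated, doubling from 0.7 or 1.5 nM to 3 µM, over designed RNA switches transcribed on Illumina chips by stalled E. coli RNA polymerase. Runs were done without input, with 200 uM small-molecule ligand, or with an oligonucleotide input. Apparent KD is the per-design median over clusters of curve-fitted normalised fluorescence.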

[1] abbreviates: Eterna round: R95, input ligand: microRNA oligo, concentration not stated.
Where [2] appears, read: input ligand: microRNA oligo, concentration not stated.

Take “UCGGCGCGAGGAUAUGCGGUUUGUGCUUUGGGCCCUGGCGUACAUGAGGAUCACCCAUGUAGAAGGCGCGUUGC [Apr-15 SS2-48] (puzzle: Exclusion 2)”: the “apparent KD of MS2 coat protein” value under setting [1] worked out at 17.1 nM.
As for “UCGGGUAGAGGAUAUACAUAGAAAUAGAUUCAUGUAAAACUACAUGAGGAUCACCCAUGUAGAAGGCUAUCCGU [Mat - Exclusion 2 - JL Mod - D56] (Eterna round: R97, puzzle: Exclusion 2)”, the “apparent KD of MS2 coat protein” value (input ligand: FMN 200 uM) is 164 nM and the “apparent KD of MS2 coat protein” value (input ligand: none) was determined as 27.2 nM.
“UCGUGAUUAGAGGAUAUAUUAAGAGUCAGAACAAUAGAAGGCUAAACAUGAGGAUCACCCAUGUAAAUGUGAAA [JR_Ex6_Sub060] (Eterna round: R97, puzzle: Exclusion 6)”: the “apparent KD of MS2 coat protein” value worked out at 172 nM (input ligand: FMN 200 uM) and 35.5 nM (input ligand: none).
Regarding “UCGUGAUUAGAGGAUAUAUUAAGGGUCAGAACAAUAGAAGGCUAAACAUGAGGAUCACCCAUGUAAAUGGUUUU [JR_Ex6_Sub058] (Eterna round: R97, puzzle: Exclusion 6)”, the “apparent KD of MS2 coat protein” value is, setting by setting: (input ligand: FMN 200 uM) 183 nM; (input ligand: none) 70.7 nM.
Consider “UCGUGAUUAGAGGAUAUAUUUUGAGUCAGAACAAUAGAAGGCUAAACAUGAGGAUCACCCAUGUAUAUGUGUAA [JR_Ex6_Sub062] (Eterna round: R97, puzzle: Exclusion 6)”, for which the “apparent KD of MS2 coat protein” value was found to be 140 nM (input ligand: FMN 200 uM) and 46.7 nM (input ligand: none).
Consider “UCGUUUUUUGAGGAUAUGCGACGUUUUUUCGUCGUAGAAGGCGAUACAUGAGGAUCACCCAUGUUUAUGGGCAU [LRO-Ex6-15] (puzzle: Exclusion 6)”, for which the “apparent KD of MS2 coat protein” value under setting [1] was found to be 148 nM.
As to “UCUAACCAUGUAGGAUAUGCGUGGCUAAGCUAUGCAGAAGGACAUGAGGAUCACCCAUGUGCCUCCGUCUGCGUACAGUCGGCU [EXclNG1-LROPPY01] (Eterna round: R96, puzzle: Exclusion NG 1)”, the “apparent KD of MS2 coat protein” value by setting is: (input ligand: FMN 200 uM) 15.5 nM; under setting [2], 11.2 nM; (input ligand: none) 18.5 nM.
Regarding “UCUCGCAGGCAAGGAUAUCCUACAUUGUUCUGGCCCGGGCAUGUUACAUGAGGAUCACCCAUGUGGGAGAAGGUGCGCCACGGC [Design 33] (Eterna round: R96, puzzle: Exclusion NG 2)”, the “apparent KD of MS2 coat protein” value by setting is: (input ligand: FMN 200 uM) 196 nM; under setting [2], 175 nM; (input ligand: none) 100 nM.
Take “UCUCGCGUCGAGGAUAUAUCGUGUAAGUGCGCGAUAGAAGGCGACACAUGAGGAUCACCCAUGUAGGGCCGAAC [Eternabot (Original) Solution 14] (Eterna round: R97, puzzle: Exclusion 6)”: the “apparent KD of MS2 coat protein” value amounted to 149 nM (input ligand: FMN 200 uM) and 23.2 nM (input ligand: none).
On to “UCUCGUAGGCAAGGAUAUCCUACAUUGUUCUGGCCCGGGCAUGCUACAUGAGGAUCACCCAUGUGGGAGAAGGUGCGCCACUGC [Design 27] (Eterna round: R96, puzzle: Exclusion NG 2)”, for which the “apparent KD of MS2 coat protein” value (input ligand: FMN 200 uM) is 52.4 nM, the “apparent KD of MS2 coat protein” value under setting [2] is 39.7 nM and the “apparent KD of MS2 coat protein” value (input ligand: none) came to 36.2 nM.
In the case of “UCUCUUGGGCAAGGAUAUCCUGCGCGGUUCCGGUUCGUGUCUGUCACAUGAGGAUCACCCAUGUGGGAGAAGGUGCCUGCGGUU [Design 76] (Eterna round: R96, puzzle: Exclusion NG 2)”, under setting [2], the “apparent KD of MS2 coat protein” value came to 13.1 nM.
“UCUGGGUCUGUGAGGAUAUCGGGCCCGAAAGGGCCCGAGAAGGCACAUGAGGAUCACCCAUGUAAGGGCUCGGG [-38.4, -36.3 kcal, A 23%, 0-7bis] (Eterna round: R97, puzzle: Brourd's mod of Exclusion 4)”: the “apparent KD of MS2 coat protein” value worked out at 20.3 nM (input ligand: FMN 200 uM) and 25 nM (input ligand: none).
For “UCUUACUGAGGAUAUACAUAGAUUUACAUGAGGAUCACCCAUGUUCCUCUAUGUAUAAAUGUAGAAGGCAGAAGAA [Mat - Exclusion 5 - JL Mod - D53] (Eterna round: R97, puzzle: Exclusion 5)”, the “apparent KD of MS2 coat protein” value (input ligand: FMN 200 uM) amounted to 82.6 nM and the “apparent KD of MS2 coat protein” value (input ligand: none) was found to be 17.8 nM.
